Results published in PMC10361993, “Amyloid modifier SERF1a interacts with polyQ-expanded huntingtin-exon 1 via helical interactions and exacerbates polyQ-induced toxicity” (Communications Biology, 2023).
Where “and” joins values, the source holds several entries; their conditions need not be identical. Equal entries are not always repeated. Where a SMILES comes first, the peptide text is derived from it.

B3: NT17 peptide (N-terminal 17 amino acids of Htt) (peptide, UniProt P42858 1-17, looked up)
peptide: MATLEKLMKAFESLKSF
notes: N-terminal 17 amino acids of huntingtin; source: synthetic peptide (peptide synthesis core, Genomics Research Center, Academia Sinica)
B4: Human SERF1a (small EDRK-rich factor 1a), short form (natural protein, UniProt O75920-2 1-62, looked up)
chain: MARGNQRELARQKNMKKTQEISKGKRKEDSLTASQRKQRDSEIMQEKQKAANEKKSMQTREK
notes: Small EDRK-rich factor 1a, human, short form of 62 residues (the long form has 110); full-length cDNA amplified by PCR from GenBank BC021174; 15N-labelled (M9 minimal medium) for the NMR titration; also called rSERF1a; recombinant SERF1a; source: E. coli BL21(DE3), purified (Ni-Sepharose, thrombin cleavage, Mono-S); not shown: His-tag, N-terminal, cleaved

Key:
SERF1a [1] = target: T1, SERF1a (Homo sapiens, UniProt O75920); assay: Intrinsic tyrosine fluorescence titration of Aβ or α-synuclein with SERF1a; assay type: binding; details: tyrosine fluorescence quenching upon SERF1a titration, fitted
T1 construct: Full-length SERF1a cDNA was amplified by PCR; His-tag with thrombin site (N, cleaved yes); made in house; host or cells: E. coli BL21(DE3), pET14b
T1 sequence (O75920 1-62 isoform O75920-2): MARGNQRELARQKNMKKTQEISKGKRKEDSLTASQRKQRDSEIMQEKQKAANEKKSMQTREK

[2] = ThT assay of Aβ and α-synuclein fibrillization with and without SERF1a; assay type: physicochemical; details: Aβ 25 μM, α-synuclein 50 μM, 25 °C, shaking
Procedure: For SERF1a and α-synuclein aggregation assay, α-Synuclein at 50 μM in Tris buffer (10 mM Tris-HCl, pH 7.4, and 150 mM NaCl) was incubated with different SERF1a concentrations in a 384-well ELISA plate. ThT at 10 μM was added in the samples. The samples were constantly rotated at 400 rpm during the incubation. ThT fluorescence was measured at 485 nm with an excitation of 442 nm at 25 °C by a microplate reader (SpectraMax M5; Molecule Devices) with SoftMax Pro 5.4. The data from independent trials were averaged, and the standard deviations were calculated.
were incubated at 25 °C with continuous shaking at 800 rpm. ThT fluorescence at 485 nm was monitored with excitation at 442 nm. The error bars represent standard deviation.

SERF1a [3] = target: T1, SERF1a; assay: Isothermal titration calorimetry of Htt peptides with SERF1a; assay type: binding; details: ITC, 250 μM SERF1a injected into 50 μM peptide, 10 mM PB pH 7.4, 26 °C
Procedure: MicroCal iTC200 (GE) was used for ITC experiments. SERF1a was in 10 mM PB, pH 7.4. For Htt-0, Htt-1, Htt-2, Htt-4, and Htt-5, 300 μM SERF1a in syringe was injected into the cell containing 30 μM Htt peptides. The volume of each injection was 2 μl. For Htt-3 and NT17, 250 μM SERF1a in syringe was injected into the cell containing 50 μM Htt peptides. The volume of each injection was 1.5 μl. The cell of the calorimeter was maintained at 26 °C. ITC analysis software MicroCal Analysis Launcher (GE Healthcare) was used for data analysis.

[4] = target: the molecule itself; assay: AUC; sedimentation velocity; NT17 and Htt-3 at 50 μM, Htt-0, Htt-1, Htt-2, Htt-4 and Htt-5 at 30 μM, in 10 mM PB pH 7.4, 42,000 rpm for 24 h at 25 °C; c(s) distribution, SEDFIT
[5] = target: B4; assay: ITC; 250 μM SERF1a in syringe injected into 50 μM Htt-3 or NT17 in the cell; 10 mM PB pH 7.4, 26 °C, 1.5 μl injections; details: both partners purified
[6] = target: Htt-3 peptide (four prolines at a/d positions of the polyQ region); assay: as above
[7] = target: B3; assay: as above; details: both partners purified
α-Synuclein, P37840 = assay: other fluorescence titration; tyrosine fluorescence of Aβ or α-synuclein titrated with SERF1a at different concentrations; quenching fitted; details: remark: other sources report otherwise

In the case of α-synuclein, the Kd (SERF1a [1]) is reported as 20800 ± 8300 nM and the “effect of SERF1a on fibrillization (ThT assay)” value [2] is reported as “accelerated”.

`CSCC[C@H](NC(=O)[C@H](CC(C)C)NC(=O)[C@H](CCCCN)NC(=O)[C@H](CCC(=O)O)NC(=O)[C@H](CC(C)C)NC(=O)[C@@H](NC(=O)[C@H](C)NC(=O)[C@@H](N)CCSC)[C@@H](C)O)C(=O)N[C@@H](CCCCN)C(=O)N[C@@H](C)C(=O)N[C@@H](Cc1ccccc1)C(=O)N[C@@H](CCC(=O)O)C(=O)N[C@@H](CO)C(=O)N[C@@H](CC(C)C)C(=O)N[C@@H](CCCCN)C(=O)N[C@@H](CO)C(=O)N[C@@H](Cc1ccccc1)C(=O)N1CCC[C@H]1C(=O)N[C@@H](CCC(N)=O)C(=O)N[C@@H](CCC(N)=O)C(=O)N1CCC[C@H]1C(=O)N[C@@H](CCC(N)=O)C(=O)N[C@@H](CCC(N)=O)C(=O)N[C@@H](CCC(N)=O)C(=O)N1CCC[C@H]1C(=O)N[C@@H](CCC(N)=O)C(=O)N[C@@H](CCC(N)=O)C(=O)N1CCC[C@H]1C(=O)N[C@@H](CCC(N)=O)C(=O)N[C@@H](CCC(N)=O)C(=O)N[C@@H](CCC(N)=O)C(=O)N[C@@H](Cc1ccc(O)cc1)C(=O)N[C@@H](CCCCN)C(=O)O` [Htt-3] (H-MATLEKLMKAFESLKSFPQQPQQQPQQPQQQYK-OH) showed a Kd (SERF1a [3]) of 332 nM.

B1: Htt-0, wild-type Htt peptide of 33 amino acids (peptide)
chain: MATLEKLMKAFESLKSFQQQQQQQQQQQQQQPPP
With B1 the “stoichiometry N” value [4] was 2.

B2: Htt-1, Htt peptide with four leucines in the polyQ region (peptide)
chain: MATLEKLMKAFESLKSFLQQLQQQLQQLQQQPPP
For B2, the “stoichiometry N” value [4] was 5 and 8.

For B3, the Ka [5] was 1.38e+07 M⁻¹ and the Kd [5] was 72.5 nM.

In the case of B4, the Ka [6] is reported as 3.01e+06 M⁻¹, the Kd [6] is reported as 332 nM and the stoichiometry N [6] is reported as 0.5. The “stoichiometry N” value [7] was roughly 0.5 and the Kd (α-Synuclein, P37840) was 20800 nM.
